Test results taken from PMC8233664, “CAR T cells targeting tumor-associated exons of glypican 2 regress neuroblastoma in mice” (Cell Reports Medicine, 2021).

Columns and labels:
GPC2 exon 3 peptide 21 = target: T1, GPC2 exon 3 peptide 21 (Homo sapiens); assay: ELISA; single 18-residue peptides at 5 μg/ml in PBS coated overnight; 1 μg/ml CT3; detected with goat anti-mouse IgG-HRP; details: both partners purified
T1 construct: human glypican 2, 18-residue peptide no; 21 of the overlapping library (9 residues overlap), in exon 3; source: synthetic peptide (Genscript)
T1 chain: QPFGDSPRRLRLQITRTL

GPC2 exon 3 peptide 11 = target: T2, GPC2 exon 3 peptide 11 (Homo sapiens); assay: as above; details: both partners purified
T2 construct: human glypican 2, 18-residue peptide no; 11 of the overlapping library (9 residues overlap), in exon 3; source: synthetic peptide (Genscript)
T2 chain: MLSVAQHSLTQLFSHSYG

GPC2 exon 3 peptide 17 = target: T3, GPC2 exon 3 peptide 17 (Homo sapiens); assay: as above; details: both partners purified
T3 construct: human glypican 2, 18-residue peptide no; 17 of the overlapping library (9 residues overlap), in exon 3; source: synthetic peptide (Genscript)
T3 chain: AQLLERVFPLLHPQYSFP

GPC2 exon 3 peptide 19 = target: T4, GPC2 exon 3 peptide 19 (Homo sapiens); assay: as above; details: both partners purified
T4 construct: human glypican 2, 18-residue peptide no; 19 of the overlapping library (9 residues overlap), in exon 3; source: synthetic peptide (Genscript)
T4 chain: PDYLLCLSRLASSTDGSL

GPC2 exon 3 peptide 14 = target: T5, GPC2 exon 3 peptide 14 (Homo sapiens); assay: as above; details: both partners purified
T5 construct: human glypican 2, 18-residue peptide no; 14 of the overlapping library (9 residues overlap), in exon 3; source: synthetic peptide (Genscript)
T5 chain: FNGLFSRLRDFYGESGEG

GPC2 exon 3 peptide 18 = target: T6, GPC2 exon 3 peptide 18 (Homo sapiens); assay: as above; details: both partners purified
T6 construct: human glypican 2, 18-residue peptide no; 18 of the overlapping library (9 residues overlap), in exon 3; source: synthetic peptide (Genscript)
T6 chain: LLHPQYSFPPDYLLCLSR

GPC2 exon 3 peptide 13 = target: T7, GPC2 exon 3 peptide 13 (Homo sapiens); assay: as above; details: both partners purified
T7 construct: human glypican 2, 18-residue peptide no; 13 of the overlapping library (9 residues overlap), in exon 3; source: synthetic peptide (Genscript)
T7 chain: RLYAQHALIFNGLFSRLR

GPC2 exon 3 peptide 15 = target: T8, GPC2 exon 3 peptide 15 (Homo sapiens); assay: as above; details: both partners purified
T8 construct: human glypican 2, 18-residue peptide no; 15 of the overlapping library (9 residues overlap), in exon 3; source: synthetic peptide (Genscript)
T8 chain: DFYGESGEGLDDTLADFW

GPC2 exon 3 peptide 20 = target: T9, GPC2 exon 3 peptide 20 (Homo sapiens); assay: as above; details: both partners purified
T9 construct: human glypican 2, 18-residue peptide no; 20 of the overlapping library (9 residues overlap), in exon 3; source: synthetic peptide (Genscript)
T9 chain: LASSTDGSLQPFGDSPRR

GPC2 exon 3 peptide 16 = target: T10, GPC2 exon 3 peptide 16 (Homo sapiens); assay: as above; details: both partners purified
T10 construct: human glypican 2, 18-residue peptide no; 16 of the overlapping library (9 residues overlap), in exon 3; source: synthetic peptide (Genscript)
T10 chain: LDDTLADFWAQLLERVFP

GPC2 exon 3 peptide 12 = target: T11, GPC2 exon 3 peptide 12 (Homo sapiens); assay: as above; details: both partners purified
T11 construct: human glypican 2, 18-residue peptide no; 12 of the overlapping library (9 residues overlap), in exon 3; source: synthetic peptide (Genscript)
T11 chain: TQLFSHSYGRLYAQHALI

GPC2 exon 3 peptide 10 = target: T12, GPC2 exon 3 peptide 10 (Homo sapiens); assay: as above; details: both partners purified
T12 construct: human glypican 2, 18-residue peptide no; 10 of the overlapping library (9 residues overlap), in exon 3; source: synthetic peptide (Genscript)
T12 chain: RKFDEFFLEMLSVAQHSL

[1] = target: T13, recombinant human GPC2 protein (Homo sapiens, UniProt Q8N158); assay: BLI; Octet RED96; His-tagged GPC2 immobilised on Ni-NTA biosensors; association 600 s, dissociation 1800 s; details: both partners purified
T13 construct: human glypican 2 (GPC2), recombinant protein from R&D Systems; also called human glypican 2; His-tagged GPC2 protein; source: bought: R&D Systems
T13 sequence (Q8N158 24-554): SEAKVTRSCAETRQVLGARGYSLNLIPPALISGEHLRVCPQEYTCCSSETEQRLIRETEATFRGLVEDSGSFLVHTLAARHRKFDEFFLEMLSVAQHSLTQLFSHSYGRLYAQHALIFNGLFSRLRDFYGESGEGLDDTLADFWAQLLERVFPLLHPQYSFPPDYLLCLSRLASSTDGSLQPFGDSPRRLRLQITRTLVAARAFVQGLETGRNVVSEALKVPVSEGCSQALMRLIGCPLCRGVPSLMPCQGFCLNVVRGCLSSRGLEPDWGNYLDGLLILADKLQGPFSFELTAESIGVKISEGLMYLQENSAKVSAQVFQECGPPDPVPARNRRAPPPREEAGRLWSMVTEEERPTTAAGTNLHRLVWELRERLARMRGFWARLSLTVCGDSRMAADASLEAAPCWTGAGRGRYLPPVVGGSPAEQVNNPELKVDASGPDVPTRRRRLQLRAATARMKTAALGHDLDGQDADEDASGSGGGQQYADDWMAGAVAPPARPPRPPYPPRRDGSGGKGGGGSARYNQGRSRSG

[2] = target: cell surface GPC2 on neuroblastoma cells (Homo sapiens, UniProt Q8N158); assay: cell-based or functional assay
Sequence of cell surface GPC2 on neuroblastoma cells (Q8N158 24-554): as above

[3] = target: human GPC2 stably overexpressed on G10 (A431) and F8 (IMR5) cells (Homo sapiens, UniProt Q8N158); assay: cell-based or functional assay
Sequence of human GPC2 stably overexpressed on G10 (A431) and F8 (IMR5) cells (Q8N158 24-554): as above

[4] = target: T14, recombinant human GPC3 protein (Homo sapiens, UniProt P51654); assay: ELISA; plates coated with recombinant human GPC2, GPC1 and GPC3; mouse hybridoma supernatant containing 1 μg/ml of each mAb; detected with goat anti-mouse IgG-HRP; details: one partner purified
T14 construct: human glypican 3, recombinant protein from R&D Systems; source: bought: R&D Systems
T14 sequence (P51654 25-580): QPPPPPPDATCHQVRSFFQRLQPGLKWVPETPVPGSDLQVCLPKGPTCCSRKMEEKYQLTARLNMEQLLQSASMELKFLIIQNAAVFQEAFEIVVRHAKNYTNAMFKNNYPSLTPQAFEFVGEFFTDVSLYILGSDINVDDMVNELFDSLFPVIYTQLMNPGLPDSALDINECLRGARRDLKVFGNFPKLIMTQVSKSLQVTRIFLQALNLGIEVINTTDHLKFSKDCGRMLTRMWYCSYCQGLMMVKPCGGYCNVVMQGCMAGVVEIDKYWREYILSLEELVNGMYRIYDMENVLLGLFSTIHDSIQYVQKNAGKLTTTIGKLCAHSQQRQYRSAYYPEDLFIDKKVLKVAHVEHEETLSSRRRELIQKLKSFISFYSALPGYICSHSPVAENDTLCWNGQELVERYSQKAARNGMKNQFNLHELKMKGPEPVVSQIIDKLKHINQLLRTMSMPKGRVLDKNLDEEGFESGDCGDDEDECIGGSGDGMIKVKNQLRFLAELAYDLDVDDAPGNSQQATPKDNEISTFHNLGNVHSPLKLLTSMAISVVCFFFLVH

[5] = target: T15, recombinant human GPC1 protein (Homo sapiens, UniProt P35052); assay: as above; details: one partner purified
T15 construct: human glypican 1, recombinant protein from R&D Systems; source: bought: R&D Systems
T15 sequence (P35052 24-530): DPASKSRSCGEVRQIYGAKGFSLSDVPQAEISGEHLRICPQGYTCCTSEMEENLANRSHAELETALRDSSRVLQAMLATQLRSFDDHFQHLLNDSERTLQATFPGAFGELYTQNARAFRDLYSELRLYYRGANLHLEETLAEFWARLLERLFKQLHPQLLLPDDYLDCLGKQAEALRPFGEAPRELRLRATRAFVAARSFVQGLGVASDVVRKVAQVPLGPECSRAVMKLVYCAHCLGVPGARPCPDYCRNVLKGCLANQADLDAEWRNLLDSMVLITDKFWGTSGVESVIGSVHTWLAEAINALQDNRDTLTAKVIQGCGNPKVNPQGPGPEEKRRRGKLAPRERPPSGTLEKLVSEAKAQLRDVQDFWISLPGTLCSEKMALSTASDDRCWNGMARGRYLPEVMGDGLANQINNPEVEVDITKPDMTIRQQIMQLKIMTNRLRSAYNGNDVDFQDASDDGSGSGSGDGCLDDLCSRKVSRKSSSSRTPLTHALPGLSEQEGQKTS

[6] = target: T16, recombinant human GPC4 protein (Homo sapiens, UniProt O75487); assay: ELISA; CT3 at 1 μg/ml on human GPC1 through GPC6 and mouse GPC2 proteins (R&D Systems) and GPC2 exon 3-hFc; detected with goat anti-mouse IgG-HRP; details: both partners purified
T16 construct: human glypican 4, recombinant protein from R&D Systems; source: bought: R&D Systems
T16 sequence (O75487 19-529): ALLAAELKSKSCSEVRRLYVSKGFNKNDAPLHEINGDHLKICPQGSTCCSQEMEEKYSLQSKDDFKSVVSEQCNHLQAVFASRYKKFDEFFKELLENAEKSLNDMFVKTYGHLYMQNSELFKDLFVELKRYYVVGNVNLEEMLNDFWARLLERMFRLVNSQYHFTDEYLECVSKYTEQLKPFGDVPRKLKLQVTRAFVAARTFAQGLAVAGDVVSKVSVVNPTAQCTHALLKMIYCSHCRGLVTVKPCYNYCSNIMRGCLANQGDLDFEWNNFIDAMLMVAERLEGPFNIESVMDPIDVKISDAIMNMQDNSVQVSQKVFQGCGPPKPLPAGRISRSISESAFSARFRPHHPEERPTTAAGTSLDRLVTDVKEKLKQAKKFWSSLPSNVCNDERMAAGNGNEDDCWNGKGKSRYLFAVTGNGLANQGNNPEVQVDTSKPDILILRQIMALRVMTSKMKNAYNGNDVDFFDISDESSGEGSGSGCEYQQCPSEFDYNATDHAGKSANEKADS

[7] = target: T17, recombinant human GPC5 protein (Homo sapiens, UniProt P78333); assay: as above; details: both partners purified
T17 construct: human glypican 5, recombinant protein from R&D Systems; source: bought: R&D Systems
T17 sequence (P78333 25-572): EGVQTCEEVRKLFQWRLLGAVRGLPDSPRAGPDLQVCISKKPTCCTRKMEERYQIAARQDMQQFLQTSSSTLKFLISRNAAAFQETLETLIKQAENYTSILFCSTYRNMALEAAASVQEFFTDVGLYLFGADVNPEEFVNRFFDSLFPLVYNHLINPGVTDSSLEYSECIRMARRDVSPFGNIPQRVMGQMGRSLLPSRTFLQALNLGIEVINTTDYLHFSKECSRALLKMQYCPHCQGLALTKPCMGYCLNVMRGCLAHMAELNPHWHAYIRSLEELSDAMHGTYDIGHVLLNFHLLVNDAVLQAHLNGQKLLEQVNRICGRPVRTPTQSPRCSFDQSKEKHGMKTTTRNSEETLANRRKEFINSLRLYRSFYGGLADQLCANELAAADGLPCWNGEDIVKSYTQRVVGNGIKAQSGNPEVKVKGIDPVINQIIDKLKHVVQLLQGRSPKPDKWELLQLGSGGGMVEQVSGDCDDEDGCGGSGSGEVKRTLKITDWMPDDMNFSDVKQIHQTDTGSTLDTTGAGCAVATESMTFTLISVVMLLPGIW

[8] = target: T18, human GPC2 exon3-hFc protein (Homo sapiens); assay: as above; details: both partners purified
T18 construct: human glypican 2, the stretch encoded by exon 3 (of transcript GPC2-201); also called recombinant exon 3 fragment of GPC2; exon 3 of GPC2; source: cloned into the pVRC8400 expression plasmid
T18 chain: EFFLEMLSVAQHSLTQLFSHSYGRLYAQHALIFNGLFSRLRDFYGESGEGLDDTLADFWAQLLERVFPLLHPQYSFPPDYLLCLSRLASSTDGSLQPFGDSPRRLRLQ

[9] = target: T19, recombinant human GPC6 protein (Homo sapiens, UniProt Q9Y625); assay: as above; details: both partners purified
T19 construct: human glypican 6, recombinant protein from R&D Systems; source: bought: R&D Systems
T19 sequence (Q9Y625 24-529): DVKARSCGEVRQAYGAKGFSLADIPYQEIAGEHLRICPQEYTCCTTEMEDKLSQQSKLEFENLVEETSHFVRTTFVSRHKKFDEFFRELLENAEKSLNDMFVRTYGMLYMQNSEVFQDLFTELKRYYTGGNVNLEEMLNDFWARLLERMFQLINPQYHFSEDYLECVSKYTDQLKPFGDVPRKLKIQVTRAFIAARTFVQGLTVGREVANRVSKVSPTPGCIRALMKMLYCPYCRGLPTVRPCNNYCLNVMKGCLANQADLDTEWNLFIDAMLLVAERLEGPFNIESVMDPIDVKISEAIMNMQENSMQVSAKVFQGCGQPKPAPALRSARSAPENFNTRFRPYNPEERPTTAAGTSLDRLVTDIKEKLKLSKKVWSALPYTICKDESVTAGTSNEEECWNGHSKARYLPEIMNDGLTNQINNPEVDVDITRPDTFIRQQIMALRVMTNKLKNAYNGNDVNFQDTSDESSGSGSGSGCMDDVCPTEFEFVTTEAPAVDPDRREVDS

B1: CT3 monoclonal antibody (antibody, V domains shown)
VH: EVQLQQSGPELVKPGASVKMSCKASRFTFTDYNIHWVKQSPGKTLEWIGYINPNNGDIFYKQKFNGKATLTINKSSNTAYMELRSLTSEDSAVYYCVRSSNIRYTFDRFFDVWGTGTTVTVSS
VL: ENVLTQSPAIMSASLGEKVTMSCRASSSVNYIYWYQQKSDASPKLWIYYTSNLAPGVPARFSGSGSGNSYSLTISSMEGEDAATYYCQQFSSSPSTFGTGTKLELK
notes: variable regions were cloned by 5'RACE; EM maps of the CT3 Fab/GPC2 complex deposited at wwPDB (deposition ID D_1000256119); Mouse mAb raised against the 50-residue C-terminal (exon 10) peptide of GPC2; also called CT3 mAb; source: mouse hybridoma (parental clone 2); hybridoma supernatant and purified mAb
B1: no binding (tested: 1 μg/ml of CT3) (GPC2 exon 3 peptide 21); no binding (tested: 1 μg/ml of CT3) (GPC2 exon 3 peptide 11); no binding (tested: 1 μg/ml of CT3) (GPC2 exon 3 peptide 17). B1: no binding (tested: 1 μg/ml of CT3) (GPC2 exon 3 peptide 19); no binding (tested: 1 μg/ml of CT3) (GPC2 exon 3 peptide 14); no binding (tested: 1 μg/ml of CT3) (GPC2 exon 3 peptide 18). B1: no binding (tested: 1 μg/ml of CT3) (GPC2 exon 3 peptide 13); no binding (tested: 1 μg/ml of CT3) (GPC2 exon 3 peptide 15); no binding (tested: 1 μg/ml of CT3) (GPC2 exon 3 peptide 20). B1: no binding (tested: 1 μg/ml of CT3) (GPC2 exon 3 peptide 16); no binding (tested: 1 μg/ml of CT3) (GPC2 exon 3 peptide 12); no binding (tested: 1 μg/ml of CT3) (GPC2 exon 3 peptide 10). The Kd [1] was 0.5 nM, the “cytotoxicity of CT3 CAR T cells (CT3 as scFv in a CAR with CD8α hinge) on NBEB cells, xCELLigence real-time analysis, E:T ratio 1:1, 25 h” value [2] was 74% and the “cytotoxicity of CT3 CAR T cells (CT3 as scFv in a CAR with CD8α hinge) on SKNAS cells, xCELLigence real-time analysis, E:T ratio 1:1, 25 h” value [2] was 43%. For the same binder, the “lysis of NB PDX-derived cells by CT3 CAR T cells (CT3 as scFv in a 4-1BB CAR), luciferase-based killing assay, E:T ratio 25:1, 24 to 72 h of co-culture” value [2] was 80%, the “lysis of G10 and F8 cells (high GPC2) by CT3 CAR T cells (CT3 as scFv in a 4-1BB CAR), luciferase-based killing assay, 24 h, E:T ratio 3:1” value [3] was ~70% and the binding result [4] was “no binding (tested: 1 μg/ml of each mAb)”. B1: no binding (tested: 1 μg/ml of each mAb) [5]; no binding (tested: 1 μg/mL of CT3) [6]; no binding (tested: 1 μg/mL of CT3) [7]. B1: binds [8]; no binding (tested: 1 μg/mL of CT3) [9].
